Drawing on patent US20180171024A1, this text covers MFI and Kd for two substances.

What is called Kd is the constant that tells how readily two partners part at equilibrium.

Test [1] has as its target HLA-A2 on other WT1 negative HLA-A2+ cells (other than 501, A498 and SKMEL; members not named). Briefly: flow cytometry on IM-9 cells (WT1 mRNA -). Background: In flow cytometry, cells or beads pass a laser one at a time.
For test [2] the target is unchanged. Briefly: flow cytometry on U266 cells (WT1 mRNA -).
Test [3] has the same target. Nature of the test: flow cytometry on JVM-2 cells (WT1 mRNA -).
Test [4] addresses Unloaded T2 (Homo sapiens). Nature of the test: flow cytometry, unloaded T2 cells. Set-up: reference not given here.
In test [5] the target is HLA-A2/MAGE-A4 230-239 complex on cells (human). Briefly: flow cytometry, T2 cells loaded with 10^-4 M peptide.
In test [6] the target is HLA-A2/MAGE-A9 223-231 complex on T2 cells (human). The test is described as above.
The target of test [7] is HLA-A2/PAP 112-120 complex on T2 cells (human). The test is described as above.
The target of test [8] is HLA-A2 on HLA-A2+ cells that do not express WT1 (tumor cell lines, normal primary cells). Briefly: flow cytometry on SKMEL-5 melanoma cells (WT1 mRNA -).
Test [9] shares this target. Briefly: flow cytometry on A498 cells (WT1 mRNA -).
Test [10] has as its target HLA-A2 on HLA-A2+/WT1+ BV173 cells (WT1 mRNA positive; WT1 126-134 peptide not detected by mass spectrometry of eluted HLA peptides). Nature of the test: flow cytometry on BV173 cells (WT1 mRNA +).
Test [11] deals with HLA-A2 on HLA-A2+/WT1+ SET2 cells (WT1 mRNA positive; WT1 126-134 peptide not detected by mass spectrometry of eluted HLA peptides). Nature of the test: flow cytometry on SET-2 cells (WT1 mRNA +).
The target in test [12] is HLA-A2/WT1 126-134 complex on T2 cells (human). Nature of the test: flow cytometry, T2 cells loaded with 10^-4 M WT1 peptide.
In test [13] the target is HLA-A2 on HLA-A2+ cells that do not express WT1 (tumor cell lines, normal primary cells). Briefly: flow cytometry on 501A melanoma cells (WT1 mRNA -).
Test [14] addresses HLA-A2/Tyrosinase369-377 complex on cells (human). Briefly: flow cytometry, T2 cells loaded with 10^-4 M peptide. Set-up: reference not given here.
The target of another test is P68 … (Homo sapiens). The description is as above. Set-up: reference not given here.
For test [15], the target named is HLA-A2/WT1-S10 on T2 cells (human). Briefly: flow cytometry, peptide-loaded T2 cells (10^-4-10^-5 M).
In test [16] the target is HLA-A2/WT1-S11 on T2 cells (human). The description is as above.
Test [17] addresses HLA-A2/WT1-S13 on T2 cells (human). The description is as above.
Test [18] deals with HLA-A2/WT1-S16 on T2 cells (human). The description is as above.
Test [19] addresses HLA-A2/WT1-S22 on T2 cells (human). The test is described as above.
For test [20], the target named is HLA-A2/WT1-S6 on T2 cells (human). Described as above.
Test [21] concerns the target HLA-A2/WT1-S7 on T2 cells (human). Described as above.
The target of test [22] is HLA-A2/WT1 126-134 complex on T2 cells (human). Briefly: flow cytometry, T2 cells loaded with WT1 peptide 1x10e-4M.
For test [23] the target is unchanged. Briefly: flow cytometry, T2 cells loaded with WT1 peptide 1x10e-5M.
For test [24] the target is unchanged. Nature of the test: flow cytometry, T2 cells loaded with WT1 1x10e-4M in DMSO.
For test [25], the target named is single-chain recombinant HLA-A2/WT1 126-134 complex (human). Nature of the test: SPR (ProteOn), biotinylated scHLA-A2/WT1 on NeutrAvidin, Fab as analyte; faster dissociation told in words.

Take ESK1 TCR-like antibody (IgG): the MFI turned out to be 1.2 in test [1]; 1.9 in test [2]; 1 in [3]; 1 in [4]; 1.1 in [5]; 1 in test [6]. Moreover, the MFI in [7] was 1.1; in [8], 4.3; in [9] it was 5.2; in test [10], 8.1; in test [11], 26.3; in test [12] it was 18. Further, the MFI in [13] came to 10.7; in [14], 1; with P68 … (Homo sapiens), 1; in test [15], 1.4; in test [16], 1.1; in test [17], 1.1. The MFI is 1.1 in [18]; 1.1 in [19]; 5 in [20]; 3.1 in test [21]; 17.9 in test [22]; 1.6 in test [23]. Also, the MFI in test [24] stood at 17.9.

As for ESK1 TCRL Fab, the equilibrium dissociation constant (Kd) in test [25] amounted to 200 nM.
